From PMC4106346, “The Oligomeric States of the Purified Sigma-1 Receptor Are Stabilized by Ligands*” (The Journal of Biological Chemistry, 2014) come the findings set out here.

Substitutions are numbered along the chain they refer to. Names and notes keep the numbering of the source.

Data set [1] concerns the molecule itself. In words: SEC; analytical size exclusion chromatography, Yarra SEC-3000, 10 mM HEPES pH 7.2, 150 mM NaCl, 0.3 mM TCEP, 0.018% DDM, column at 20 °C; self-association in protein-detergent micelles.
Data set [2] deals with the molecule itself. The experiment in a line: SEC-MALS; isolated intermediate oligomer (peak *) of MBP-4A-S1R; Superdex S200, 150 mM NaCl, 5 mM HEPES pH 7.2, 0.018% DDM.
Data set [3] deals with the molecule itself. In words: cross-linking; DSS (150 or 250 μM) on 5 μM isolated peak 1 (oligomer) of MBP-4A-S1R, 2 h at room temperature, with or without 10 μM BD-1047; SDS-PAGE.
Data set [4] deals with the molecule itself. The experiment in a line: SEC-MALS; isolated peak 1 (largest oligomer) of MBP-4A-S1R; Superdex S200, 150 mM NaCl, 5 mM HEPES pH 7.2, 0.018% DDM.

B1: G91I MBP-4A-S1R (receptor, guinea pig, UniProt Q60492 1-223, looked up)
chain: MQWAVGRRWLWVALFLAAVAVLTQIVWLWLGTQNFVFQREEIAQLARQYAGLDHELAFSKLIVELRRLHPVHVLPDEELQWVFVNAGGWMIAMCLLHASLSEYVLLFGTALGSPRHSGRYWAEISDTIISGTFHQWREGTTKSEVFYPGETVVHGPGEATAVEWGPNTWMVEYGRGVIPSTLGFALADTVFSTQDFLTLFYTLRVYARALQLELTTYLFGQDP
notes: sigma-1 receptor (S1R), guinea pig, 223 amino acids, as m1 with G91I; also called G91I mutation; not shown: MBP with 4-Ala linker, N-terminal, kept
Take B1: in data set [1], the “stoichiometry N” value is about 2.

B2: MBP-4A-S1R (guinea pig sigma-1 receptor fused to maltose-binding protein through a 4-Ala linker) (receptor, UniProt Q60492 1-223, looked up)
chain: B1 chain with I91G
notes: sigma-1 receptor (S1R), guinea pig, 223 amino acids; In detergent micelles (DDM); One preparation separates into a 6-8-mer, a tetramer and a monomer; also called nonmutated receptor; nonmutated fusion protein; source: preparative size exclusion chromatography; not shown: MBP with 4-Ala linker, N-terminal, kept
With B2, the “stoichiometry N” value is 4 in data set [2], over 4 in data set [3] and 6 to 8 in data set [4].

B3: H97A MBP-4A-S1R (receptor, guinea pig, UniProt Q60492 1-223, looked up)
chain: B1 chain with I91G, H97A
notes: sigma-1 receptor (S1R), guinea pig, 223 amino acids, as m1 with H97A; also called mutation H97A; not shown: MBP with 4-Ala linker, N-terminal, kept
For B3, in data set [1], the binding result is “binds”.

B4: G88I MBP-4A-S1R (receptor, guinea pig, UniProt Q60492 1-223, looked up)
chain: B1 chain with G88I, I91G
notes: sigma-1 receptor (S1R), guinea pig, 223 amino acids, as m1 with G88I; Named only as one of the substitutions of Ile or Leu at Gly-87, Gly-88 and Gly-91; also called substitution of Ile at Gly-88; not shown: MBP with 4-Ala linker, N-terminal, kept
For the protein B4, the binding result in data set [1] is “binds”.

B5: G91L MBP-4A-S1R (receptor, guinea pig, UniProt Q60492 1-223, looked up)
chain: B1 chain with I91L
notes: sigma-1 receptor (S1R), guinea pig, 223 amino acids, as m1 with G91L; also called G91L mutation; not shown: MBP with 4-Ala linker, N-terminal, kept
With B5, the “stoichiometry N” value in data set [1] was about 4.

B6: G88L MBP-4A-S1R (receptor, guinea pig, UniProt Q60492 1-223, looked up)
chain: B1 chain with G88L, I91G
notes: sigma-1 receptor (S1R), guinea pig, 223 amino acids, as m1 with G88L; Named only as one of the substitutions of Ile or Leu at Gly-87, Gly-88 and Gly-91; also called substitution of Leu at Gly-88; not shown: MBP with 4-Ala linker, N-terminal, kept
With B6, the binding result in data set [1] is on record as “binds”.
